Assay results taken from US20240025993A1, “CD19 BINDING MOLECULES AND USES THEREOF” (NOVARTIS AG, priority 2020, published 2024).

What follows are substances tested against human Fc gamma receptor 1A (human) (UniProt P12314) (assay: SPR (Biacore T200), antibody amine-coupled on CM5 chip, receptor as analyte).
Chain of human Fc gamma receptor 1A (human) (P12314 16-288 limits assumed): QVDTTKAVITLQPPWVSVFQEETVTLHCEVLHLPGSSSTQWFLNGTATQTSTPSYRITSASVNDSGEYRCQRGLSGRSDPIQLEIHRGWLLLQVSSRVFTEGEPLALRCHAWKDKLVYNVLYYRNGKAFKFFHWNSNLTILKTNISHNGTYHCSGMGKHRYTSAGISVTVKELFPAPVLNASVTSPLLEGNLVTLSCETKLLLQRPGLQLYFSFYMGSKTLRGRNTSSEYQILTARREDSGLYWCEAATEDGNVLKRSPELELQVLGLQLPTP

| Substance | Maximum response at 100 nM hFcgammaRIA (RU) |
| --- | --- |
| Anti-CD3 human IgG1 antibody, GADAPA Fc variant (G237A/D265A/P329A) | 16 |
| Anti-CD3 human IgG1 antibody, LALAGA Fc variant (L234A/L235A/G237A) | 15 |
| Anti-CD3 human IgG1 antibody, DAPASK Fc variant (D265A/P329A/S267K) | 13 |
| Anti-CD3 human IgG1 antibody, DANAPA Fc variant (D265A/N297A/P329A) | 11 |
| Anti-CD3 human IgG1 antibody, LALAPG Fc variant (L234A/L235A/P329G) | 18 |
| Anti-CD3 human IgG1 antibody, LALASKPA Fc variant (L234A/L235A/S267K/P329A) | 9 |
| Anti-CD3 human IgG1 antibody, GADAPASK Fc variant (G237A/D265A/P329A/S267K) | 10 |
